Drawing on publication PMC5100602, “RNA regulators responding to ribosomal protein S15 are frequent in sequence space”, this text covers Kd for ten molecules.

The target of data set [1] is T1, Gk-S15 (ribosomal protein S15) (Geobacillus kaustophilus, UniProt Q5L0I3 1-89). Kind of data set: filter binding; Fmax 44%; poor 1:1 fit; SELEX Binding Buffer A: 50 mM Tris/acetate pH 7.5, 20 mM Mg-acetate, 270 mM KCl, 5 mM DTT, 0.02% BSA, 25 C, 30 min; filter binding (nitrocellulose/nylon) as previously described. The conditions noted are these: protein: recombinant; tags: expressed from pET-HT; label: 5'-32P.

Data set [2] concerns the target T1, Gk-S15 (ribosomal protein S15). Kind of data set: filter binding; Fmax 40%; SELEX Binding Buffer A: 50 mM Tris/acetate pH 7.5, 20 mM Mg-acetate, 270 mM KCl, 5 mM DTT, 0.02% BSA, 25 C, 30 min; filter binding (nitrocellulose/nylon) as previously described. The conditions noted are these: protein: recombinant; tags: expressed from pET-HT; label: 5'-32P.
Data set [3] shares this target. Kind of data set: filter binding; Fmax 0.36; SELEX Binding Buffer A: 50 mM Tris/acetate pH 7.5, 20 mM Mg-acetate, 270 mM KCl, 5 mM DTT, 0.02% BSA, 25 C, 30 min; filter binding (nitrocellulose/nylon) as previously described. The conditions noted are these: protein: recombinant; tags: expressed from pET-HT; label: 5'-32P.
The target of data set [4] is T2, Tt-S15 (ribosomal protein S15) (Thermus thermophilus, UniProt Q5SJ76 1-89). Description: filter binding; Fmax 25%; SELEX Binding Buffer A: 50 mM Tris/acetate pH 7.5, 20 mM Mg-acetate, 270 mM KCl, 5 mM DTT, 0.02% BSA, 25 C, 30 min; filter binding (nitrocellulose/nylon) as previously described. The following applies: protein: recombinant; tags: expressed from pET-HT; label: 5'-32P.
T2 sequence (Q5SJ76 whole entry): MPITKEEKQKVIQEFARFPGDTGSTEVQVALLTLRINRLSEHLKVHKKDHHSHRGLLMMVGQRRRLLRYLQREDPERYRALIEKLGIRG

Data set [5] has as its target T1, Gk-S15 (ribosomal protein S15). Kind of data set: filter binding; Fmax 79%; SELEX Binding Buffer A: 50 mM Tris/acetate pH 7.5, 20 mM Mg-acetate, 270 mM KCl, 5 mM DTT, 0.02% BSA, 25 C, 30 min; filter binding (nitrocellulose/nylon) as previously described. The following applies: protein: recombinant; tags: expressed from pET-HT; label: 5'-32P.
For data set [6] the target is unchanged. Kind of data set: filter binding; Fmax 21%; SELEX Binding Buffer A: 50 mM Tris/acetate pH 7.5, 20 mM Mg-acetate, 270 mM KCl, 5 mM DTT, 0.02% BSA, 25 C, 30 min; filter binding (nitrocellulose/nylon) as previously described. The conditions noted are these: protein: recombinant; tags: expressed from pET-HT; label: 5'-32P.
Data set [7] shares this target. Description: filter binding; Fmax 55%; SELEX Binding Buffer A: 50 mM Tris/acetate pH 7.5, 20 mM Mg-acetate, 270 mM KCl, 5 mM DTT, 0.02% BSA, 25 C, 30 min; filter binding (nitrocellulose/nylon) as previously described. The following applies: protein: recombinant; tags: expressed from pET-HT; label: 5'-32P.
For data set [8] the target is unchanged. Description: filter binding; Fmax 0.56; text says abolished; SELEX Binding Buffer A: 50 mM Tris/acetate pH 7.5, 20 mM Mg-acetate, 270 mM KCl, 5 mM DTT, 0.02% BSA, 25 C, 30 min; filter binding (nitrocellulose/nylon) as previously described. The conditions noted are these: protein: recombinant; tags: expressed from pET-HT; label: 5'-32P; H1 disrupted.
For data set [9] the target is unchanged. Kind of data set: filter binding; Fmax 0.71; SELEX Binding Buffer A: 50 mM Tris/acetate pH 7.5, 20 mM Mg-acetate, 270 mM KCl, 5 mM DTT, 0.02% BSA, 25 C, 30 min; filter binding (nitrocellulose/nylon) as previously described. The conditions noted are these: protein: recombinant; tags: expressed from pET-HT; label: 5'-32P; H2 disrupted.
For data set [10] the target is unchanged. Description: filter binding; Fmax 0.85; SELEX Binding Buffer A: 50 mM Tris/acetate pH 7.5, 20 mM Mg-acetate, 270 mM KCl, 5 mM DTT, 0.02% BSA, 25 C, 30 min; filter binding (nitrocellulose/nylon) as previously described. The following applies: protein: recombinant; tags: expressed from pET-HT; label: 5'-32P; H1 restored.
Data set [11] has the same target. Description: filter binding; Fmax 70%; SELEX Binding Buffer A: 50 mM Tris/acetate pH 7.5, 20 mM Mg-acetate, 270 mM KCl, 5 mM DTT, 0.02% BSA, 25 C, 30 min; filter binding (nitrocellulose/nylon) as previously described. The conditions noted are these: protein: recombinant; tags: expressed from pET-HT; label: 5'-32P; helices H1-H3.
Data set [12] has as its target T2, Tt-S15 (ribosomal protein S15). Description: filter binding; Fmax 78%; SELEX Binding Buffer A: 50 mM Tris/acetate pH 7.5, 20 mM Mg-acetate, 270 mM KCl, 5 mM DTT, 0.02% BSA, 25 C, 30 min; filter binding (nitrocellulose/nylon) as previously described. The following applies: protein: recombinant; tags: expressed from pET-HT; label: 5'-32P; helices H1-H3.

B1: 11-5 (structured_RNA)
RNA: UGCGUAACGUACACUAAAGACGGAAGGCCAAAACCUAUGCUUACCCUUUACUUUGGAGUUUUAAAAUGUCUCUAAGUACUGAAGCAACAGCU
In the case of B1, the Kd in data set [1] amounted to 10 ± 1.4 nM.

B2: 11-3 (structured_RNA)
RNA: UGCGUAACGUACACUCCGAUGUUACCCGCGCGAGGUCAUUGGUACUCAAUCUAUAUACUUUGGAGUUUUAAAUGUCUCUAAGUACUGAAGCAACAGCU
On to B2, for which, in data set [2], the Kd turned out to be 20.7 ± 15.2 nM.

B3: 11-1-M4 (structured_RNA)
RNA: UGCGUAACGUACACUUCCUUCGCUUAUUCGGAGUAGAUCACGUGAUCAUUCUGUAUGCUUUGGAG
Take B3: the dissociation constant (Kd) in [3] was determined as 7.7 ± 5.89 nM.

B4: 11-2 (structured_RNA)
RNA: UGCGUAACGUACACUCCCUACUCGUGGAUUGGACUCUAUAAUAGAUCAUUCUAUAUACUGUGGAGCUUAAAAUGUCUCUAAGUACUGAAGCAACAGCU
As for B4, the Kd in data set [4] amounted to 39 ± 6.27 nM; in data set [5] it was 9.7 ± 1.6 nM.

B5: 11-4 (structured_RNA)
RNA: UGCGUAACGUACACUGAACAAUCCCAGCGCUCUAUGGAAUCUGCAUCAUCUAUUCUUUGGAGUUUAAAUGUCUCUAAGUACUGAAGCAACAGCU
As to B5, the Kd in data set [6] was 8.5 ± 2 nM.

B6: 11-6 (structured_RNA)
RNA: UGCGUAACGUACACUGAAGACCGCGAACUACAAACGUAACUCGGUUCAUUCUAUAUACUUUAGAGUUUUAAAAUGUCUCUAAGUACUGAAGCAACAGCU
On to B6, for which the Kd in data set [7] was found to be 289 ± 121 nM.

B7: 11-1-M2 (structured_RNA)
RNA: UUGGUAACGUACACUUCCUUCGCUUAUUCGGAGUAGAUCACGUGAUCAUUCUGUAUGCUUUGGAGUUUUAAAAUGUCUCUAAGUACUGAAGCAACAGCU
For the molecule B7, the equilibrium dissociation constant (Kd) in [8] was 56.5 ± 5.74 nM.

B8: 11-1-M8 (structured_RNA)
RNA: UGCGUAACGUACACUUCCUUCGCUUAUUCGGAGUAGAUCACGUGAUCAUUCUGUAUGCUUUGGUCUUUUAAAAUGUCUCUAAGUACUGAAGCAACAGCU
With B8, the dissociation constant (Kd) in data set [9] was determined as 84.5 ± 14.5 nM.

B9: 11-1-M3 (structured_RNA)
RNA: UUGGUAACCGACACUUCCUUCGCUUAUUCGGAGUAGAUCACGUGAUCAUUCUGUAUGCUUUGGAGUUUUAAAAUGUCUCUAAGUACUGAAGCAACAGCU
Turning to B9, the dissociation constant Kd in data set [10] stood at 20.9 ± 6.3 nM.

B10: 11-1 (structured_RNA)
RNA: UGCGUAACGUACACUUCCUUCGCUUAUUCGGAGUAGAUCACGUGAUCAUUCUGUAUGCUUUGGAGUUUUAAAAUGUCUCUAAGUACUGAAGCAACAGCU
Take B10: the dissociation constant Kd in data set [11] was found to be 0.9 ± 0.02 nM; in data set [12], 94.9 ± 22.5 nM.

By Kd is commonly meant a measure of binding affinity in units of concentration.
